Measured values taken from patent US20120114667A1 (AstraZeneca / MedImmune, published 2012).
Blank lines part the entries; values can stand above or below the binder they belong to.

Tests used:
Macaque α5β1 = molecular target: T1, Macaque α5β1 (Macaque); assay: FACS on macaque PBMC, 1 mM Mn2+
T1 construct: whole, on cells; macaque species not specified; also called monkey α5β1; monkey integrin
Procedure: To determine whether the antibodies cross reacted to monkey integrin, binding to purified Macaque T-cells was assessed. Macaque PBMCs were previously purified from whole blood, and stored frozen. Macaque PBMCs were suspended in adhesion buffer with HBSS 1% BSA and 1 mM Mn2+ (“FACS buffer”), at a concentration of 4.8×10⁵ live cells per ml. 12.5 uL of the primary antibody was added to 37.5 ul of cells, and incubated at 4° C. for 1 hour. Positive and negative controls were included as indicated. 100 uL of FACs buffer is added to dilute out primary antibody, the cells washed and resuspended in the appropriate secondary at 2 ug/mL (50 uL) with 10 ug/mL 7AAD, and stained on ice for 7 minutes. 100 uL of FACs buffer was added and cells were washed twice in FACS buffer, finally the supernatant removed and the cells were resuspended in 100 uL of buffer.
Samples were read on HTS FACS machine and analyzed using Cell Quest Pro software. The data shown in Table 7 confirm that the antibodies cross react with monkey α5β1.

human α5β1 integrin [1] = molecular target: T2, human α5β1 integrin (human, UniProt P08648 42-1049; P05556 21-798); assay: cell-based or functional assay
T2 sequence (P08648 42-1049, chain 1 of 2): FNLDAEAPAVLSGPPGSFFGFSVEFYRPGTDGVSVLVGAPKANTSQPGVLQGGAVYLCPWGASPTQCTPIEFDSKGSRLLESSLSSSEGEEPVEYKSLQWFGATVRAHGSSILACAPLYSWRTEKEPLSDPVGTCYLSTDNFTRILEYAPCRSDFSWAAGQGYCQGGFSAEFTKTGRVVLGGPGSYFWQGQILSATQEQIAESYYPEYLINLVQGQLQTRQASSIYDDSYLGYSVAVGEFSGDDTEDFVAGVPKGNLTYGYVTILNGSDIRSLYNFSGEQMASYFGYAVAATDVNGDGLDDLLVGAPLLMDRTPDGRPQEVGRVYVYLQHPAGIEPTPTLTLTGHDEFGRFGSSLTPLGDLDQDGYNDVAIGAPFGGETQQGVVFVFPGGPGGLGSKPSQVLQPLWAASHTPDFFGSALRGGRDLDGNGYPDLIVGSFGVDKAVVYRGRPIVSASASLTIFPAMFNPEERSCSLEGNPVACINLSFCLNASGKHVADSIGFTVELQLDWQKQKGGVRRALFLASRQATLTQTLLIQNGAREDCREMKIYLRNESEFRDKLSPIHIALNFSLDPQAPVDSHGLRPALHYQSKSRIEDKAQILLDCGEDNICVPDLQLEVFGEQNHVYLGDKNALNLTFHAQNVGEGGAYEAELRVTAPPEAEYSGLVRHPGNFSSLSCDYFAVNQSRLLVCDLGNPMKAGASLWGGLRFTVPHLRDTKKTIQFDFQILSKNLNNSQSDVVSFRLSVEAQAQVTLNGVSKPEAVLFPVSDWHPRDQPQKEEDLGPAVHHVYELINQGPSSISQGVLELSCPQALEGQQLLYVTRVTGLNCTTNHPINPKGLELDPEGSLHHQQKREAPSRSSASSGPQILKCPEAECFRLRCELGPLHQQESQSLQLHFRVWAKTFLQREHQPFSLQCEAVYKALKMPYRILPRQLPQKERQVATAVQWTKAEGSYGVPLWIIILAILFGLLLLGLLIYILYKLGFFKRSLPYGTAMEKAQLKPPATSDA
T2 sequence (P05556 21-798, chain 2 of 2): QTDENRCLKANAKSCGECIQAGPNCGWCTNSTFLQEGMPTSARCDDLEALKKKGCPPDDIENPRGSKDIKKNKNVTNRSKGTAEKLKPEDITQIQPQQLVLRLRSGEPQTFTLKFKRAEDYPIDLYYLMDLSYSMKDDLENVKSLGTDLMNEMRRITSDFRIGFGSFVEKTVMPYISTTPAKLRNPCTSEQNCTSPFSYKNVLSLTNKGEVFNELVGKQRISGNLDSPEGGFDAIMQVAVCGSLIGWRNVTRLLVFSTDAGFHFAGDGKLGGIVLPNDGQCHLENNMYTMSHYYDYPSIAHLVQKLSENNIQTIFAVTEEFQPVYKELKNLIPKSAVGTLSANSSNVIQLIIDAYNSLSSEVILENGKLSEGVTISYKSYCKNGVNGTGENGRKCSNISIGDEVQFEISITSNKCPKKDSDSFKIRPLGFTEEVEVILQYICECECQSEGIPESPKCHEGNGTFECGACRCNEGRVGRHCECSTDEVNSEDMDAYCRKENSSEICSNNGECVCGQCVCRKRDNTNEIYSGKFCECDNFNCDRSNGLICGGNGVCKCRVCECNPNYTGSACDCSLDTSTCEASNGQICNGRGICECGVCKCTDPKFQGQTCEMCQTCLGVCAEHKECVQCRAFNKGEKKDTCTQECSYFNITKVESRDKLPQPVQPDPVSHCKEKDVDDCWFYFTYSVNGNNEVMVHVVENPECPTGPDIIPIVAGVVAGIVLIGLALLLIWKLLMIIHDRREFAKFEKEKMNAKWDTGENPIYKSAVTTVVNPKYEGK

human α5β1 integrin [2] = molecular target: T2, human α5β1 integrin; assay: FACS-based KD titration on K562 cells, 4 C, 5 h, 1 mM MgCl2 and 1 mM CaCl2
Procedure: To assess the affinity of the antibodies for α5β1, a FACS based KD analysis was employed. […] K562 cells expressing α5β1 were resuspended in filtered HBS buffer containing 1 mM MgCl₂ and 1 mM CaCl₂ at a concentration of approximately 2.5-6 million cells/mL. The cells were kept on ice. Serially diluted (2×) mAbs across 11 wells in a 96-well plate. All mAbs were diluted in HBS described above. Additional HBS and cells were added to each well so that the final volume was 300 μL/well and each well contained approximately 140,000-150,000 cells. The final molecular concentration range for each mAb was 3C5: 3.8 nM -7.5 μM; 5B11: 3.8 nM-7.3 μM. Cells were incubated on a plate shaker for 5 hours at 4° C. and then were spun/washed 3× at 4° C. with HBS. […] The Mean Fluorescence (F) of 7000 “events” was determined using FACS Canto II HTS flow cytometry instrumentation. To calculate affinity, data was fitted nonlinearly to a plot of the Mean Fluorescence as a function of molecular mAb concentration with Scientist 3.0 software using the equation:
In this equation, F=mean fluorescence, LT=total molecular mAb concentration, P′=proportionality constant that relates arbitrary fluorescence units to bound mAb, M=cellular concentration in molarity, n=number of receptors per cell, B=background signal, and KD=equilibrium dissociation constant. […]

[3] = molecular target: T3, α4β1 integrin on J6.77 Jurkat cells (UniProt P13612 34-1032; P05556 21-798); assay: cell-based or functional assay
T3 sequence (P13612 34-1032, chain 1 of 2): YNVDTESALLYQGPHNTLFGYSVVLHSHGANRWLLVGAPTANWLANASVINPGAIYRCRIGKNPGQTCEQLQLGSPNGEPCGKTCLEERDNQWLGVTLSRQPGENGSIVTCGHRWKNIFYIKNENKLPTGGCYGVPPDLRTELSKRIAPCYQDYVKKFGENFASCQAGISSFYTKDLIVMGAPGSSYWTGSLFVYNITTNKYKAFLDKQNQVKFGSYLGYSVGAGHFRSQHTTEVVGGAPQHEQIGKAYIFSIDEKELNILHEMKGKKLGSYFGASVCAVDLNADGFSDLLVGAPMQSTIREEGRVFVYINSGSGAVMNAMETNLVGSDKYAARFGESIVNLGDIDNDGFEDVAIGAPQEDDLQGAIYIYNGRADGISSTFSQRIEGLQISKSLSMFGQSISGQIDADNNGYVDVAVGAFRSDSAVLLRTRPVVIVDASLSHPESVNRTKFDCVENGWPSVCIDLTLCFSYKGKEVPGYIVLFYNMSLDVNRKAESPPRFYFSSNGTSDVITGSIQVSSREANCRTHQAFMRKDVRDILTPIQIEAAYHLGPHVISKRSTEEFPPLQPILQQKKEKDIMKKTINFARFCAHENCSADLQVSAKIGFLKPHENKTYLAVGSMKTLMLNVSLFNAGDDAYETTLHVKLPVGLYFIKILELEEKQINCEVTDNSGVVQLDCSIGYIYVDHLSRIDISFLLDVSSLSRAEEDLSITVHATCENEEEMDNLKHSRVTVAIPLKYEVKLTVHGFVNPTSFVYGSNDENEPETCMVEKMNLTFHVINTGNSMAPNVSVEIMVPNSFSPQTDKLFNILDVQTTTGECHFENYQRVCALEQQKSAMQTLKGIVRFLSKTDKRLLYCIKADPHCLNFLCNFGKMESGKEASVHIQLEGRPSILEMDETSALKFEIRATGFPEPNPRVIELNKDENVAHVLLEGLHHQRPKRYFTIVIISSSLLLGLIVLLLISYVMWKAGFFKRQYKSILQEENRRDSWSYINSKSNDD
T3 sequence (P05556 21-798, chain 2 of 2): as the sequence (P05556 21-798, chain 2 of 2) above

human α5β1 integrin [4] = molecular target: T2, human α5β1 integrin; assay: cell-based or functional assay; remark: listed apart in the source
[5] = molecular target: T3, α4β1 integrin on J6.77 Jurkat cells; assay: cell-based or functional assay; remark: listed apart in the source
[6] = molecular target: T4, β1 integrin chain on HT29 cells (α5 null line) (human, UniProt P05556 21-798); assay: FACS on HT29 cells (no α5, β1 present)
T4 construct: whole, on cells; β1 is paired with alpha chains other than α5 on these cells; also called β1 chain; beta1
T4 sequence (P05556 21-798): as the sequence (P05556 21-798, chain 2 of 2) above
Procedure: To confirm the antibodies bind to the α5 chain or to the α5β1 heterodimer, binding to Human colon adenocarcinoma grade II cells (HT29 cells) was assessed by FACS. […] HT-29 cells were suspended in HBSS with 1% BSA and 1 mM final MnCL₂ at a concentration of 6×10⁵ cells/ml.12.5 uL of the primary antibody was added to 37.5 ul of cells and the plate incubated on ice for 60 minutes. A range of negative controls were included as described previously (indicated as below). In addition as a positive control antibodies to αvβ6 (Mab2077, Chemicon), α5β1 (Mab1909, Chemicon) and av (L230, Chemicon) were included. 100 uL of HBSS buffer was added to dilute primary antibody, the cells pelleted by centrifuging at 1500 rpm for 3 minutes and resuspended in 50 ul Goat anti-human IgG Fc Cy5 or Goat anti Mouse IgG Fc Cy5 secondary at 2 ug/mL. They were then incubated on ice for a further 7 minutes, and 100 uL of HBSS buffer was added to dilute secondary antibody. Finally cells were pelleted by centrifuging at 1500 rpm for 3 minutes, HBSS Buffer/secondary supernatant removed, washed twice in 100 ul of FACS buffer was added and the cells were resuspended and then read on a FACS Calibur HTS. Samples were analyzed using Cell Quest Pro software. The data is represented in Table 6 and confirm that the antibodies are selective for α5β1.

mouse α5β1 integrin = molecular target: T5, mouse α5β1 integrin (mouse, UniProt P11688 45-999; P09055 21-728, limits assumed); assay: not described
T5 construct: printed only as mouse integrin / murine integrin; also called mouse integrin; murine integrin
T5 sequence (P11688 45-999 limits assumed, chain 1 of 2): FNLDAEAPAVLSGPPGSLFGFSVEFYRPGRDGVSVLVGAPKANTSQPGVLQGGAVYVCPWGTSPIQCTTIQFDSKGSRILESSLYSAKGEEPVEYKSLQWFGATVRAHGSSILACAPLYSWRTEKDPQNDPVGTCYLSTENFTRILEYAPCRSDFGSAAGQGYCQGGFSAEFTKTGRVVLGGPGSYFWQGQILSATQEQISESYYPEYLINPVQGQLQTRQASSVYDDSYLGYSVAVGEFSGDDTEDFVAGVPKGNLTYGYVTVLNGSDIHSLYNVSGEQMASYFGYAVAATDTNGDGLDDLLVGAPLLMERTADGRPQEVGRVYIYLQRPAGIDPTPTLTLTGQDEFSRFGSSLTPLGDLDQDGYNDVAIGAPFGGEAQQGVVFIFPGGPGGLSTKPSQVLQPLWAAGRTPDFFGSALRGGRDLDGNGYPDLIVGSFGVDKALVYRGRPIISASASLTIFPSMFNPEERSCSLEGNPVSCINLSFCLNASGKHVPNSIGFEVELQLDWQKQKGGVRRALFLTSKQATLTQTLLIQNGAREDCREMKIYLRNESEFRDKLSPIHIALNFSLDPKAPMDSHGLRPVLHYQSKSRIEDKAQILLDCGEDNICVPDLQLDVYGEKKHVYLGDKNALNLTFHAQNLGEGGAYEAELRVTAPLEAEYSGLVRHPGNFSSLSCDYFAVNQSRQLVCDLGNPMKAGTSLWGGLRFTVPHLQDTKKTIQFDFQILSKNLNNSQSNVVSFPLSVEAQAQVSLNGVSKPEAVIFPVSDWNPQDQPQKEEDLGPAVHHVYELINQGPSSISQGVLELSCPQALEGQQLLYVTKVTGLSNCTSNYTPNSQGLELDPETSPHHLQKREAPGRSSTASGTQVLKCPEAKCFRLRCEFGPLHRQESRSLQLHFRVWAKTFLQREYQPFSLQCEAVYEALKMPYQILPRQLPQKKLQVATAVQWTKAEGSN
T5 sequence (P09055 21-728 limits assumed, chain 2 of 2): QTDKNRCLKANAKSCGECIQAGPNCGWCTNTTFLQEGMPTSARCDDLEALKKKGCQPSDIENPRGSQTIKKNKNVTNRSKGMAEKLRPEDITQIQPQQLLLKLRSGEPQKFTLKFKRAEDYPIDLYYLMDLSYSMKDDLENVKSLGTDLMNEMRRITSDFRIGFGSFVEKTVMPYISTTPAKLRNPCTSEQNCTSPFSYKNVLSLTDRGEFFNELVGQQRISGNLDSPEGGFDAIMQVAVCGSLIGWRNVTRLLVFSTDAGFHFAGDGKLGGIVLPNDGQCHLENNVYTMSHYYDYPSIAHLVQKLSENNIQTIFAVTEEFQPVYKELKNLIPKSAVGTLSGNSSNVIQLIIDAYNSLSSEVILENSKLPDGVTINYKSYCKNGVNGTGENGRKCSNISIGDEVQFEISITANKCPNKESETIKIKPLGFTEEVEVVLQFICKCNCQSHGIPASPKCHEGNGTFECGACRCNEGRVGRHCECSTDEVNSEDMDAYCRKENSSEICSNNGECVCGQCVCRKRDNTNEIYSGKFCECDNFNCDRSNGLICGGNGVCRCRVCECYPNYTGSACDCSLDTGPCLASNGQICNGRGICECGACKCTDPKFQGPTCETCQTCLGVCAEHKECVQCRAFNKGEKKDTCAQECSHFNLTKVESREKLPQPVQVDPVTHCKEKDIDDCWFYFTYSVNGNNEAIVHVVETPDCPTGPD

Geo Mean on Macaque T-cells IgG detection (Macaque α5β1): 12
IC50 ng/mL (K562 adhesion to GST-FNIII(9-10)) (human α5β1 integrin [1]): 28.4 ng/mL
Kd (human α5β1 integrin [2]): 0.0347 nM
Average % inhibition at 5 ug/ml (J6 adhesion to GST-CS-1) [3]: -9%
% Inhibition of cell adhesion n = 1 (K562 on full length FN) (human α5β1 integrin [4]): 96%
% Inhibition of cell adhesion n = 2 (K562 on full length FN) (human α5β1 integrin [4]): 98%
% Inhibition of cell adhesion n = 3 (K562 on GST-FNIII(9-10), no pre-incubation) (human α5β1 integrin [4]): 90%
% Inhibition of cell adhesion n = 4 (K562 on GST-FNIII(9-10), supernatant 1 in 10) (human α5β1 integrin [4]): 97%
% Inhibition of cell adhesion n = 5 (K562 on GST-FNIII(9-10), supernatant 1 in 10) (human α5β1 integrin [4]): 102%
% Inhibition of adhesion CS1 n = 1 (J6.77 Jurkat on GST-CS-1) [5]: 27%
% Inhibition of adhesion CS1 n = 2 (J6.77 Jurkat on GST-CS-1) [5]: -15%
Binding Geomean [6]: 4.62
binding result [6]: no binding
B1: 5B11 (antibody, IgG2, V domains shown)
VH: QVQLVESGGGVVQPGRSVRLSCAASGFTFSSYGMHWVRQTPGKGLEWVAIIWYDGGIEYYADSVKGRFTISRDNSKNTLYLQMNSLRAEDTAVYYCARDHRYGSSWFDYWGQGTLVTVSS
VL: DIQMTQSPSSLSASVGDRVTITCRASQGINNYLAWFQQKPGKAPKSLIYAASSLQSGVPSNFSGSGSGTDFTLSISSLQPEDFATYYCQQYKSYPLTFGGGTKVEIR
notes: also called MAb 5B11; mAb 5B11

Geo Mean on Macaque T-cells IgG detection (Macaque α5β1): 16
IC50 ng/mL (K562 adhesion to GST-FNIII(9-10)) (human α5β1 integrin [1]): 12.4 ng/mL
Kd (human α5β1 integrin [2]): 0.0147 nM
Average % inhibition at 5 ug/ml (J6 adhesion to GST-CS-1) [3]: 0%
% Inhibition of cell adhesion n = 1 (K562 on full length FN) (human α5β1 integrin [4]): 97%
% Inhibition of cell adhesion n = 2 (K562 on full length FN) (human α5β1 integrin [4]): 96%
% Inhibition of cell adhesion n = 3 (K562 on GST-FNIII(9-10), no pre-incubation) (human α5β1 integrin [4]): 99%
% Inhibition of cell adhesion n = 4 (K562 on GST-FNIII(9-10), supernatant 1 in 10) (human α5β1 integrin [4]): 97%
% Inhibition of cell adhesion n = 5 (K562 on GST-FNIII(9-10), supernatant 1 in 10) (human α5β1 integrin [4]): 104%
binding result (mouse α5β1 integrin): no binding
% Inhibition of adhesion CS1 n = 1 (J6.77 Jurkat on GST-CS-1) [5]: 24%
% Inhibition of adhesion CS1 n = 2 (J6.77 Jurkat on GST-CS-1) [5]: -4%
Binding Geomean [6]: 4.04
binding result [6]: no binding
B2: 3C5 (antibody, IgG2, V domains shown)
VH: RVQLQESGPGLVKPSQTLSLTCTVSGGSIISGGYFWTWIRQHPGKGLEWIGYIYYSGSTYYSPSLKSRVTISVDTSKNQFSLKLSSVTAADTAVYYCTRAVPAAKGYYSYYGMDVWGQGTTVTVSS
VL: DIVMTQSPLSLPVTPGEPASISCRSSQSLLHSSGYNYLDWFLQKPGQSPQLLIYLSSNRASGVPDRFSGSGSGTDFTLKISRVEAEDVGVYYCMQALQTPFTFGPGTKVDIK
notes: also called MAb 3C5; mAb 3C5
